From publication doi:10.1101/464131
pKd: −log10 of the molar value.

Target: BS69 CC-MYND domain (amino acids 480-602) (human) (UniProt Q15326)
Assay: ITC

Chain of BS69 CC-MYND domain (amino acids 480-602) (human) (Q15326 480-602): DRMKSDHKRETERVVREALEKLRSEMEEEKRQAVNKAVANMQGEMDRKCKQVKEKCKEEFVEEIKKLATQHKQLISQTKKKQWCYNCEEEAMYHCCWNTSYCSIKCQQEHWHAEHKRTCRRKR
Chain of type 1 EBNA2 polypeptide T1 EBNA2_(381-445) (domain or fragment) (P12978 381-445): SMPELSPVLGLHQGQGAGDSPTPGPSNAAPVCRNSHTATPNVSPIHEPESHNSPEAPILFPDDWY

type 1 EBNA2 polypeptide T1 EBNA2_(381-445) (domain or fragment)
pKd: 6.02 | stoichiometry N (molar ratio EBNA2 : BS69CC-MYND monomer): 0.42

type 1 EBNA2 motif 2 peptide (435-445)
pKd: 4.32
